The record followed here is patent publication US20040253224.

This series concerns Bovine submaxillary gland mucin (Sigma).

With “mouse AMCase (acidic mammalian chitinase)”, the “degradation of mucin on 7.5% SDS-PAGE with silver staining after overnight incubation at 37 C, pH 5.0 (125 ug mucin, 500 ng mouse AMCase)” value was “the mucin was degraded by treatment with the AMCase” and the “flow rate of the mucin solution, measured in a vertically positioned glass pipette, after incubation with AMCase” value was “increased with almost a factor of 2”.
